Results from patent US7078174 (WALTER AND ELIZA HALL INSTITUTE OF MEDICAL RESEARCH, dated 2006).

Tests used:
[1] = target: T1, FLAG-tagged SSB-1 truncated form lacking only the SOCS box (mouse, UniProt Q9D5L7 1-231, limits assumed); assay: co-immunoprecipitation with anti-myc from transfected 293T cells, Western blot with anti-FLAG
T1 construct: domain: SSB-1 lacking only the SOCS box; Transiently expressed in 293T cells; also called truncated form of SSB-1 lacking only the SOCS box
T1 sequence: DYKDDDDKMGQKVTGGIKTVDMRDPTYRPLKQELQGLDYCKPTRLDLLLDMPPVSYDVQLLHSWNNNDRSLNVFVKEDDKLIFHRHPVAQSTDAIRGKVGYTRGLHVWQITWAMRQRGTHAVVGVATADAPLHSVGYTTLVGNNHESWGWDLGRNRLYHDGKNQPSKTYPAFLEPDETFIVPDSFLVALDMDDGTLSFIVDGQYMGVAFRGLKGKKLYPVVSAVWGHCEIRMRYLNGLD
Excerpt: To further confirm the generality of this interaction for other proteins containing a SOCS box, 293T fibroblasts were transfected with N-terminally FLAG-tagged WSB-2 or SSB-1 along with elongin B containing a FLAG epitope or elongin C containing a myc epitope.

[2] = target: T2, elongin C (endogenous, murine M1 cells) (murine, UniProt P83940 1-112); assay: anti-FLAG M2 immunoprecipitation from M1 cells, FLAG peptide elution, Western blot
T2 construct: Endogenous protein from cell lysate; present together with elongin B; also called 15 kDa band
Description: FIG. 2 is a photographic representation showing competition of SOCS-1 SOCS box interaction with elongin C. Biotinylated SOCS-1 SOCS box peptide was immobilized on streptavidin-agarose resin and used to affinity purify interacting proteins from M1 cellular extracts in the presence (+) or absence (–) of […] competing non-biotinylated SOCS box peptides. Proteins were separated by SDS-PAGE on a 4–15% w/v acrylamide gel, and bands were visualized by silver staining. Soluble SOCS box peptides corresponding to SOCS-1, ASB-2 and WSB-2 prevented binding of elongin C to immobilized SOCS-1 SOCS box FIG. 3 is a photographic representation showing interaction of SOCS-1 with endogenous elongins B and C. Cellular extracts from M1 cells stably expressing either full-length SOCS-1 or SOCS-1 lacking SOCS box (both proteins were N-terminally FLAG-tagged) were incubated with anti-FLAG antibody M2 resin and bound cellular proteins were eluted from the columns with FLAG peptide as described in Materials and Methods. Lanes 1–3 correspond to column eluates 3 to 5 from M1 cells expressing full-length SOCS-1 and lanes 4–6 correspond to column eluates 3 to 5 from M1 cells expressing SOCS-1 lacking SOCS box. The panels from top to bottom correspond to Western blot analyses by anti-FLAG, anti-elongin C, anti-elongin B, and a mixture of anti-elongin B and anti-elongin C, respectively. […]

[3] = target: JAK1 (endogenous, M1 cells) (murine, UniProt P52332 1-1153); assay: anti-FLAG affinity column from unstimulated M1 cells, FLAG peptide elution, Western blot
Excerpt: (§1) The inventors passed lysates from 10^9 unstimulated M1 cells expressing FLAG-tagged SOCS-1 through an anti-FLAG affinity column which was then eluted with FLAG peptide. The eluate was then subjected to SDS-PAGE and the proteins were Western blotted. The blot was then probed with anti-FLAG antibodies to confirm the presence of SOCS-1 and with a range of antibodies against proteins thought to interact with SOCS-1 (FIG. 7). It can be seen that SOCS-1 is capable of forming a complex with elongin B and elongin C, cullin 2, as well as JAK1 and gp130. To determine whether proteins in this complex interact directly or indirectly with SOCS-1, or whether all the proteins can be found together in a single complex, or whether separate complexes are, for example, formed between SOCS-1, JAK-1 and gp130 on one hand and between SOCS-1, elongin B and C and cullin-2, is addressed in part by performing the primary immunoprecipitation using a different antibody.

[4] = target: cullin 2 (endogenous, M1 cells) (murine, UniProt Q9D4H8 1-745); assay: as above
Excerpt: as §1

[5] = target: T3, gp130 (endogenous, M1 cells) (murine, UniProt Q00560 23-917); assay: as above
T3 sequence (looked up): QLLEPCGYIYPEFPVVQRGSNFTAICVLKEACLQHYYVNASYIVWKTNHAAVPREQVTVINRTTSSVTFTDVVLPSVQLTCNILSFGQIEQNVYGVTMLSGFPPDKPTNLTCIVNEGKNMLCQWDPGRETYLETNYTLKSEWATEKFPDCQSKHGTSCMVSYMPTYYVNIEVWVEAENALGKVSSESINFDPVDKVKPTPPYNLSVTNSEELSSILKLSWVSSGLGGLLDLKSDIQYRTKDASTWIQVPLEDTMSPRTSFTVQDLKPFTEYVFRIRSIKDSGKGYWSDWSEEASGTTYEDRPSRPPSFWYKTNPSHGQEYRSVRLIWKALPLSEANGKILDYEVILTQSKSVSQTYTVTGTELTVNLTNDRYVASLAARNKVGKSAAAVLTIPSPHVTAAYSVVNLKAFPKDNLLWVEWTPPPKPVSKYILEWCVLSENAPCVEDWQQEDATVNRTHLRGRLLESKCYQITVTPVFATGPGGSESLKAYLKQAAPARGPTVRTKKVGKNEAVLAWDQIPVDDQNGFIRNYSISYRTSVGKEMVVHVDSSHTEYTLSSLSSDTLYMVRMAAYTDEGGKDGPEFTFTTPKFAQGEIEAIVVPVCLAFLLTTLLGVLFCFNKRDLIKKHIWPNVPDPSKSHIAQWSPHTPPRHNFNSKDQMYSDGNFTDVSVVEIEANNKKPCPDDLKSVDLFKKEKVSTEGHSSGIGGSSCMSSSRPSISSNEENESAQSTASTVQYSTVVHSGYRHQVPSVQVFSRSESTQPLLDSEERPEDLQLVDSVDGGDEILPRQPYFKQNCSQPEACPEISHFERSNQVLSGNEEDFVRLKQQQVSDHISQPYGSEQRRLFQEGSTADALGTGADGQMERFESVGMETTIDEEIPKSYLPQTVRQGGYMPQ
Excerpt: as §1

[6] = target: T4, GST (glutathione-S-transferase control) (UniProt P08515 1-218 = GST, covalently coupled to NHS-activated Sepharose resin); assay: GST-Sepharose pull-down from M1 cell lysate, Coomassie gel and Western blot
T4 construct: also called GST-Sepharose; GST control
Description: M1 cells (2 ×10^10) were lysed on ice for 30 min in 100 ml of lysis buffer supplemented with protease inhibitors (Complete Cocktail tablets; Boehringer Mannheim, Mannheim, Germany), 1 mM PMSF, 1 mM Na_3VO_4 and 1 mM NaF. The total cell lysate was centrifuged at 15,000 rpm (SS34 rotor) for 15 min at 4° C. and the clarified supernatant pre-incubated with 1 ml of GST-Sepharose resin for 2 h at 4° C. Half the GST-Sepharose-depleted M1 cell lysate was incubated with 1 ml of GST-SOCS-1 SOCS box- and the other half with GST-SOCS-3 SOCS box-Sepharose resin for 2 h at 4° C. The affinity resins were washed with 40 ml of lysis buffer and then eluted with 8×0.5 ml of elation buffer. Eluates were concentrated to ~40 μl, mixed with 15 μl of 4×SDS sample buffer containing 0.4 M DTT and resolved on a 14% polyacrylamide gel (Novex). The gel was stained for 5 min with 0.1% w/v Coomassie blue in 50% w/v methanol and destained in 12% w/v methanol and 7% w/v acetic acid.
Isolated SOCS box sequences were used as affinity reagents to identify interacting proteins in cell lysates. […] (GST) fusion proteins containing the SOCS box sequences from SOCS-1 or SOCS-3 were coupled to Sepharose beads and used as affinity resins to bind proteins from M1 cell lysates. […]

JAK1 (endogenous, M1 cells), sequence (P52332 whole entry): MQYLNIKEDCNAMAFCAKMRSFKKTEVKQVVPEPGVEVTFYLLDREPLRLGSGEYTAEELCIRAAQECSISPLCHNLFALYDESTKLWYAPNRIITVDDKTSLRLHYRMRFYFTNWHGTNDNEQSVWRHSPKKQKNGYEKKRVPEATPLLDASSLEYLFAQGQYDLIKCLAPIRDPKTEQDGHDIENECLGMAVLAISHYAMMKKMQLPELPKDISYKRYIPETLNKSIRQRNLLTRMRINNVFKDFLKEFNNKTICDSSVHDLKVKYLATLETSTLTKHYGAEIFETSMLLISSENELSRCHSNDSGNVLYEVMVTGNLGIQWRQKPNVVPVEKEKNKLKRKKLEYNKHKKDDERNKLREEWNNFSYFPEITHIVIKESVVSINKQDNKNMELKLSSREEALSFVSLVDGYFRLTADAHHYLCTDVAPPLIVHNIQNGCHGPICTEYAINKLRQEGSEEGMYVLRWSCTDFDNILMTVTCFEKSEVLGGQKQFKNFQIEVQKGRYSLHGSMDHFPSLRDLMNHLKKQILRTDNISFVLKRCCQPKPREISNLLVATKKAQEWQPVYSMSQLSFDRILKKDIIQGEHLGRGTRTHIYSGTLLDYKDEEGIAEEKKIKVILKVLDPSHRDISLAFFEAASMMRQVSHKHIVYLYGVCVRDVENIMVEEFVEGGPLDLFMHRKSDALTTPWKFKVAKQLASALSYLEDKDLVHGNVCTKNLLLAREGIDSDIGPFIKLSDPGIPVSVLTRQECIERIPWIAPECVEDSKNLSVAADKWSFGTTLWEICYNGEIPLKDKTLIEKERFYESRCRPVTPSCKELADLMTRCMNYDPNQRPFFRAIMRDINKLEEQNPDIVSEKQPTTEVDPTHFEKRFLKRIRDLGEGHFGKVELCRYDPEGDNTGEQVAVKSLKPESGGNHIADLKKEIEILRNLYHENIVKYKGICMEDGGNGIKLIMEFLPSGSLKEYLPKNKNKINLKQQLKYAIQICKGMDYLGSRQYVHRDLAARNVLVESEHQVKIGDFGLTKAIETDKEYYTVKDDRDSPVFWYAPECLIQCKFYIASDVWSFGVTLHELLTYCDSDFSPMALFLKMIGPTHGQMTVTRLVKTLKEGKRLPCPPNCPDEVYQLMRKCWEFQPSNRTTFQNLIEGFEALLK
cullin 2 (endogenous, M1 cells), sequence (Q9D4H8 whole entry): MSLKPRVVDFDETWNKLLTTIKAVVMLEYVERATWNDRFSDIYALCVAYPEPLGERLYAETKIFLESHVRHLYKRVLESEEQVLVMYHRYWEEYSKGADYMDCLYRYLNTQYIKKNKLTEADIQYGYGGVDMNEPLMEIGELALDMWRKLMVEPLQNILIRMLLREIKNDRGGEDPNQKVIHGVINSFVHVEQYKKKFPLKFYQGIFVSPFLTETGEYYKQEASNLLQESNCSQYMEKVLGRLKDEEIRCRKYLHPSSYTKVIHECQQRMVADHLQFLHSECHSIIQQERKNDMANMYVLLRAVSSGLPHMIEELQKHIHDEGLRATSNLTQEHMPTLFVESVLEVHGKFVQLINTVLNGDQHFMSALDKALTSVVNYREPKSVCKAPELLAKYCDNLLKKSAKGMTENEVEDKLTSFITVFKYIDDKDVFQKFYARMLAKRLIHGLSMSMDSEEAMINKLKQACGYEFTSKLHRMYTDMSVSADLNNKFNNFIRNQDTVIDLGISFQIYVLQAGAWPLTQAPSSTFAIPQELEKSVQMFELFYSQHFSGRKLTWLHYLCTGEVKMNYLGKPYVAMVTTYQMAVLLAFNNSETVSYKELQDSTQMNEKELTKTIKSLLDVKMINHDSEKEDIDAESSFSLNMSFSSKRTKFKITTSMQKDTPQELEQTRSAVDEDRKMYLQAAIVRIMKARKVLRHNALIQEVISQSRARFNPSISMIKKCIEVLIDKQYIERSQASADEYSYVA
T4 sequence (P08515 whole entry): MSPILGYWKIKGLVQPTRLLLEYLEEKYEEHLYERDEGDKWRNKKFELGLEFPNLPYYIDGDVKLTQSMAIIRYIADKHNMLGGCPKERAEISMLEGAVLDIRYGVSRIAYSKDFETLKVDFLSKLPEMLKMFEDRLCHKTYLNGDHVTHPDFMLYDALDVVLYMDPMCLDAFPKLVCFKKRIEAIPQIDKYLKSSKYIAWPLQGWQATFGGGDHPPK

B1: elongin C containing a myc epitope (other, mouse)
chain: DQKLISEEDLMDGEEKTYGGCEGPDAMYVKLISSDGHEFIVKREHALTSGTIKAMLSGPGQFAENETNEVNFREIPSHVLSKVCMYFTYKVRYTNSSTEIPEFPIAPEIALELLMAANFLDC
notes: Transiently expressed in 293T cells; also called myc-elongin C
B1: no binding [1].

B2: N-terminally FLAG-tagged full-length SOCS-1 (other, mouse)
chain: DYKDDDDKMVARNQVAADNAISPAAEPRRRSEPSSSSSSSSPAAPVRPRPCPAVPAPAPGDTHFRTFRSHSDYRRITRTSALLDACGFYWGPLSVHGAHERLRAEPVGTFLVRDSRQRNCFFALSVKMASGPTSIRVHFQAGRFHLDGSRETFDCLFELLEHYVAAPRRMLGAPLRQRRVRPLQELCRQRIVAAVGRENLARIPLNPVLRDYLSSFPFQI
notes: Stably expressed in M1 cells; also called FLAG-tagged SOCS-1; intact SOCS-1
B2: binds [2]; binds [3]; binds [4]. B2: binds [5].

B3: elongin B (endogenous, murine M1 cells) (other, UniProt P62869 1-118, looked up)
chain: MDVFLMIRRHKTTIFTDAKESSTVFELKRIVEGILKRPPEEQRLYKDDQLLDDGKTLGECGFTSQTARPQAPATVGLAFRADDTFEALRIEPFSSPPELPDVMKPQDSGGSANEQAVQ
notes: Endogenous protein from cell lysate; also called 18 kDa band
B3: no binding [6].

B4: elongin B containing a FLAG epitope (other, mouse)
chain: DYKDDDDKMDVFLMIRRHKTTIFTDAKESSTVFELKRIVEGILKRPPEEQRLYKDDQLLDDGKTLGECGFTSQTARPQAPATVGLAFRADDTFEALRIEPFSSPPELPDVMKPQDSGGSANEQAVQ
notes: Transiently expressed in 293T cells; also called FLAG-elongin B
B4: no binding [1].
